These results are taken from the nanobody polyreactivity screen of Harvey et al. (2022).

The series is described as follows: yeast display, Sf9 membrane polyspecificity reagent, FACS + sequencing; frameworks hold sequencing errors. The essentials: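 Nanobodies from a synthetic yeast display library (Saccharomyces cerevisiae BJ5465), induced 36–48 hours with galactose, were stained 1 hour at 4 °C with 10% biotinylated, detergent-solubilized Sf9 membrane reagent, enriched on streptavidin microbeads, then FACS-sorted. Anti-HA (expression) and streptavidin (reagent binding) fluorescence set low and high (top ~1%) gates. Polyreactivity labels come from the gate of origin. Genes were colony-PCR amplified, MiSeq 2 × 250 sequenced and filtered by CDR length.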
Take “QVQLVESGGGLVQAGGSLRLSCAASGRIFGKYAMGWYRQAPGKERELVATISLSGVRTYYADSVKGRFTISRDNAKNTVYLQMNSLKPEDTAVYYCASCYSSNGDYWGQGTQVTVSS”: the “polyreactivity (PSR sort gate)” value is “low polyreactivity”.

“QVQLVESGGGLVQAGGSLRLSCAASGRIFGKYMGWYRQAPGKERELVAAISRNGGRTYYADSVKGRFTISRDNAKNTVYLQMNCLNPEDTAVYYCAAASSRYDYWGQGTQVTVSS”: the “polyreactivity (PSR sort gate)” value was “high polyreactivity”.

As for “QVQLVESGGGLVQAGGSLRLSCAASGRIFGLYAMGWYRQAPGKERELVAAISSRGGNTYYADSVKGRFTISRDDAKNTVYLQMNSLKPEDTAVYYCARDSYSLSRTYDSWGQGTQVTVSS”, the “polyreactivity (PSR sort gate)” value is “high polyreactivity”.

On to “QVQLVESGGGLVQAGGSLRLSCAASGRIFGNNAMGLYRQAPGKERELVAAIRRGGSTYYADSVKGRFTISRDNAKNTVYLQMNSLKPEDTAVYYCAADSSRKHFYWGQGTQVTVSS”, for which the “polyreactivity (PSR sort gate)” value is “high polyreactivity”.

Consider “QVQLVESGGGLVQAGGSLRLSCAASGRIFGNNAMGWYRQAPGKERELVATITRRGGSTYYADSVKGRFTISRDNAKNTVYLQMNSLKPEDTAVYYCAADRWPYWVAFYSWGQGTQVTVSS”, for which the “polyreactivity (PSR sort gate)” value is “high polyreactivity”.

As to “QVQLVESGGGLVQAGGSLRLSCAASGRIFGNYAMGWYIQAPGKERELVAAISSGGNTNYADSVKGRFTISRDNAKNTVYLQMNSLKPEDTAVYYCAAYHFSFGWIRVDYWGQGTQVTVSS”, the “polyreactivity (PSR sort gate)” value is given as “high polyreactivity”.

As to “QVQLVESGGGLVQAGGSLRLSCAASGRIFGNYAMGWYRQAPGKERELVAAISGGGSTYYADSVKGRFTISRDNAKNTVYLQLNSLKPEDTAVYYCAARFLWSVFGGKGGYWGQGTQVTVSS”, the “polyreactivity (PSR sort gate)” value is listed as “low polyreactivity”.

“QVQLVESGGGLVQAGGSLRLSCAASGRIFGPDAMRWYRQAPRKERELVAAITWRGDRTYYADSVKGRFTISRDIAKNSVYLQINSLKPEDTAVYYCAARGGRSEYDYWGQATQVTVSS”: the “polyreactivity (PSR sort gate)” value is listed as “low polyreactivity”.

As for “QVQLVESGGGLVQAGGSLRLSCAASGRIFGPYAMGWYRQAPGKDRELVASISYSGGSTYYADSVKGRFTISRDKAKNTVYLQMNSLKPEDTAVYYCDKAGYWRGYNYWGQGTQVTVSS”, the “polyreactivity (PSR sort gate)” value is “low polyreactivity”.

With “QVQLVESGGGLVQAGGSLRLSCAASGRIFGPYAMGWYRQAPGKERELVATITWRTGSTYYADSVKGRFTISRDNAKNTVYLQMNSLKPEDTAVYYCAAQSRQAYITYGYWGQGTQVTVSS”, the “polyreactivity (PSR sort gate)” value was “high polyreactivity”.

With “QVQLVESGGGLVQAGGSLRLSCAASGRIFGQNAMGWYRQAPGKERELVAVISQSGGRTYYADSVKGRFTISRDNAKNTVYLQMNSLKPEDTAVYYCAKGGYQHYWGQGTQVTVSS”, the “polyreactivity (PSR sort gate)” value was “high polyreactivity”.

Consider “QVQLVESGGGLVQAGGSLRLSCAASGRIFGQYAMGWYRQAPGKERELVASISRRGGSTNYADSVKGRFTISRDNAKNTVYLQMNSLKPEDSAVYYCAARTWRRQYYRTRYEYWGQGTQVNVSS”, for which the “polyreactivity (PSR sort gate)” value is reported as “high polyreactivity”.

Consider “QVQLVESGGGLVQAGGSLRLSCAASGRIFGRNAMGWYRKAPGKERELVAAISWRGGNTYYADSVKGRFTISRDNAKNTVYLQMNSLKPEDTAVYYCNTVQYRNEMGYWGQGTQVTVSS”, for which the “polyreactivity (PSR sort gate)” value is recorded as “high polyreactivity”.

Take “QVQLVESGGGLVQAGGSLRLSCAASGRIFGRNAMGWYRQAPGNERELVAAINFGGTSTYYADSVKGRFTISRDNAKNTVYLQMNSLKPEDTAVYYCAARSRQDNFYRSYNSWGQGTQVTVSS”: the “polyreactivity (PSR sort gate)” value was “high polyreactivity”.

On to “QVQLVESGGGLVQAGGSLRLSCAASGRIFGRNTMGWYRKAPGKERELVASIRSGGRTYYADSVKGRFTISRDNAKNTVYLEMNSLKPEDTAVYYCAADNRKSSSSGYDYWGQGTQVTVSS”, for which the “polyreactivity (PSR sort gate)” value is reported as “low polyreactivity”.

As for “QVQLVESGGGLVQAGGSLRLSCAASGRIFGRYAMGSYRQAPGKERELVAGINSGSTSYADSVRGRFTISRDNAKNTVYLQMNSLKPEDTAVYYCARGPRYRGGWDTFRGFDYWGQGTQVTVSS”, the “polyreactivity (PSR sort gate)” value is reported as “low polyreactivity”.

In the case of “QVQLVESGGGLVQAGGSLRLSCAASGRIFGRYAMGWYRQAPGKERELVAAISSGTSTNYADSVKGRFTISRDNAKNTVYLQMNSLKPEDTAVYYCAVVLYRHWWYDYWGQGTQVTVSS”, the “polyreactivity (PSR sort gate)” value is reported as “high polyreactivity”.

Turning to “QVQLVESGGGLVQAGGSLRLSCAASGRIFGRYAMGWYRQAPGKERELVAAISSSGGTTYYADSVKGRFTISRDKAKNTVYLQMNSLKPEDTAVYYCAKRGYYYGYDYWGQGTQVTVSS”, the “polyreactivity (PSR sort gate)” value was “high polyreactivity”.

“QVQLVESGGGLVQAGGSLRLSCAASGRIFGRYAMGWYRQAPGKERELVASITRRGGSTYYADSVKGRFTISRDNAKNTVYLQMNSLKPEDTAVYYCAAGGFSWEGDSWGQGTEVTVSS”: the “polyreactivity (PSR sort gate)” value is recorded as “high polyreactivity”.

With “QVQLVESGGGLVQAGGSLRLSCAASGRIFGRYAMGWYRQAPGKERELVAVISARGARTYYADSVKGRFTISRDNAKNTVYLQMNSLKPEDTAVYYCAVDQYATDDYWGQGTQVTVSS”, the “polyreactivity (PSR sort gate)” value is recorded as “high polyreactivity”.

On to “QVQLVESGGGLVQAGGSLRLSCAASGRIFGRYAMGWYRQEPGKERELVASISWSGDSTYYADSVKGRFTISRDNAKNTVYLQMNSLKPEDTAVYYCNADPFIRTWYNYGYWGQGTQVTVSS”, for which the “polyreactivity (PSR sort gate)” value is recorded as “low polyreactivity”.

As for “QVQLVESGGGLVQAGGSLRLSCAASGRIFGRYVMGWYRQAPGKERELVAAITSRDDSTYYADSVKGRFTISRDNAKNTVYLQMTSLKPEDTAVYYCAATWGRGYDYWGQGTQVTVSS”, the “polyreactivity (PSR sort gate)” value is reported as “high polyreactivity”.

Turning to “QVQLVESGGGLVQAGGSLRLSCAASGRIFGSNAMGWYRQAPGKERELVATITKNGTSTYYADSVKGRFTISRDNAKNTVYLQMNSLKPEDTAVYYCARAPLRYSSRYEYWGQGTQVTVSS”, the “polyreactivity (PSR sort gate)” value is “low polyreactivity”.

In the case of “QVQLVESGGGLVQAGGSLRLSCAASGRIFGSYAMGWYRQAHGKERELVAAIRWSGGSTYYADSVKGRFTISRDNAKNTVYLQMNSLKPEDTAVYYCAKTRTGYCFSYGYWGQGTQVTVSS”, the “polyreactivity (PSR sort gate)” value is listed as “high polyreactivity”.

With “QVQLVESGGGLVQAGGSLRLSCAASGRIFGSYAMGWYRQAPWKERELVAAINWRGGSTFYADSVKGRFTISRDNAKNTVYLLMNSLKPEDTAVYYCARSGYRQSGDYWGQGTQVTVSS”, the “polyreactivity (PSR sort gate)” value is “low polyreactivity”.

In the case of “QVQLVESGGGLVQAGGSLRLSCAASGRIFGSYVMGWYRQAPGKEMELVATISWSGGSTYYADSVKGRFTISRDNAKNTVYLQMNSLKPEDTAVYYCAAVSRYSHSPYHYDYWGQGTQVTVSS”, the “polyreactivity (PSR sort gate)” value is reported as “high polyreactivity”.

“QVQLVESGGGLVQAGGSLRLSCAASGRIFGSYVMGWYRQAPGKERELVAAISRRGGSTYYADSVKGRFTISRDNAKNTVYLQMNSLKPEDTAVDYCAAEFSPSSNPYDYWGQGTQVTVSS”: the “polyreactivity (PSR sort gate)” value was “high polyreactivity”.

Regarding “QVQLVESGGGLVQAGGSLRLSCAASGRIFGTNAMGWYRQAPGKERELVAAISRSGGSTYYADSVKGRFTISRDNSKNTVYLQMNSLKPEDTAVYYCATDGRHTYYYWGQGTQVTVSS”, the “polyreactivity (PSR sort gate)” value is “high polyreactivity”.

In the case of “QVQLVESGGGLVQAGGSLRLSCAASGRIFGTNAMGWYRQAPGKERELVATITRGGGNTYYADSVKGRFTISRDNAKNTVYLQMNSLKPEDTAVYYCAAKFHRFAWYSHYDYWGQGTQVTVSS”, the “polyreactivity (PSR sort gate)” value is on record as “low polyreactivity”.

Take “QVQLVESGGGLVQAGGSLRLSCAASGRIFGTNAMGWYRQAPGKERELVATITRGGGNTYYADSVKGRFTISRDNAKNTVYLQMNSLKPEDTAVYYCAAYDSVQKYWILGFDYWGQGTQVTVSS”: the “polyreactivity (PSR sort gate)” value is reported as “low polyreactivity”.
